Measured values published in patent US20220233697A1 (ACCELERON PHARMA, published 2022).

Target: T1, activin A (UniProt P08476 311-426)
T1 construct: also called ActA
T1 sequence (looked up): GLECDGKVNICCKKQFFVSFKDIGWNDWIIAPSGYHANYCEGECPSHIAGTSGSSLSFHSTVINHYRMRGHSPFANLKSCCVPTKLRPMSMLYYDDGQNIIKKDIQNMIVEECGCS
Assay: Biacore, ligand coupled, receptor flowed (table reproduced from WO2006/012627)

binding result: binds
B1: Soluble ActRIIB-Fc K55A (Fc fusion, UniProt Q13705 19-119, looked up)
chain: SGRGEAETRECIYYNANWELERTNQSGLERCEGEQDARLHCYASWANSSGTIELVKKGCWLDDFNCYDRQECVATEENPQVYFCCCEGNFCNERFTHLPEA
notes: not shown: Fc domain, not specified
